The sequences below were run against T1, GST-ATML1(30-134) (Arabidopsis thaliana) (UniProt Q8RWU4) (assay: EMSA). Details: 15 mM Tris pH 7.5, 50 mM NaCl, 0.1 mM DTT, 5% glycerol, 0.1 mM MgCl2, 50 ng/ul carrier DNA, room temperature 30 min; 6% gel in 0.5x TBE at 4 C.
T1 sequence: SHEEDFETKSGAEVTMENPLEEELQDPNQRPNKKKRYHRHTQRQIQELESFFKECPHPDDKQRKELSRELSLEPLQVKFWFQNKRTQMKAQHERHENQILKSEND

Sequence	binding
ATGTGAATGAAGCCAAGAATCAGTTAATACTAAAGCTCAAGTGTGCAATATACATCACAATACCTTTGTCCTTGTTTCAGGTCTACTTTTACATCATAGAACTTGCTCCTATAGATAATACAATGCATGGTATTGACGTAAGAACTCTTAGCTTTTCATATTAGTAGCTTATAATGTTCCTTAAATGCGACATTGATATTAAGCTACTACTCAATAACTCAATGGTAACGAATCATAAGTCTGAACTATTCGAAAACAGTAATCCTGAAAAGAAA (double strand) [MIR171A-F1]	binds
ATGTTGATTACCCATATACTTTGCTAGCGGCCGAAATGATCACTTTCATGATTTTTTTTTGCATAGGTTCATAAAACATATATTTACTTTTTTTTAAGGAAATATTAAATAAATGATAGGAACTTAACAAGAGAAGAAATAAATAGGGAGGGAGAATATTTGGAAAGTTGAGCCATATTAATTTCGAAATTCAAATGTATATTGGGAGTGGCACAACCCCACCAACATGCCTTGCTCTCTCTTACAAACCTCATAAATACTAAATTGAAAGCTCGTGGGA (double strand) [MIR171B-F3]	binds
CCTCCTCAAGAAGGAAAGACAGAGGAGGAGACAAAGAAGTATAGGTTCACATTGCATAGCCAGTTTAGTTTTGAAGGATGGATATATGAAAAAAATATGAAGAGAGAGAAGAGAGAAGAAGAGGAGGATTAAAGAGGGTGAGGCCAGCTTTTGTGCTTTGGTAGTAGATGAGGTTTAAATGCTCCATACCTTCCATTTCCTTCTCTCTTACCCTAATTTAATTCTTCCTCTCCTTTATAACTCCCCACAGACATTCTCACT (double strand) [MIR171A-F3]	binds
CCTGATAATTTGATATCATCGGTTGTAAAAACGAATATGTAATGTTACATTACTAATGTATAAAGTATAAACAAATATTATTATCTTTTGAAAAAAGTTTTTCATAGAAACAATTCAAATTTAATAAACCAACCTCCTTTTTGGTATGGGGTTGTTGGTCTAATTTAATGCTTGTCTCTTGCTTGCCTCTCTTCTTCAACCATCTTCGTATTTATATCTTCTTCTTCACTATGCATACTCATAAACTTTGCTACTGGCCGCAT (double strand) [MIR171B-F4]	binds
GGGTTCATAACTTGCTTGAGGTTTTGTAAAAAGCAGAGAAAGAGAGAGAGAGGGGCCTAGAAAGAAAGAAAGAAAAGCAGTAAGAGACTATTAAATGTTGCAGGCAGGTCCAGCCAGTGTCCCCTCTCTTCTGCGAGATTCCCTCAAAATTTATTACAAAGCATCTTCATCGATGTTCTTTTAATTCTTCCTCAAAATCTTTTCTCTTTTTTTGGTTATATATATTTGAATTTTGATTTATGAACCTCCTCAAGAAGGAAA (double strand) [MIR171A-F2]	binds
